From patent US11879149B2, “Quantification method of ethanolamine phosphate, oxidoreductase for quantification, composition for quantification, kit for quantification and sensor for quantification” (KIKKOMAN CORPORATION, priority 2018, dated 2024) come the findings set out here.

Common to all, as to format: biochemical
Data set [1] in a line: Oxidase activity measurement of LcAOX, LrHP, SrAOX3925, SrAOX3926, SrEAOX (4-AA/TOOS/POD, A555). Conditions: pH 7.5; for oxidase activity of the crude enzymatic solution against EAP: crude enzyme solution, 50 mM EAP final; for oxidase activity of the crude enzymatic solution against EAP / oxidase activity against EAP after being purified: 37° C.; for oxidase activity against EAP after being purified: purified preparation. The method, then:
Oxidase activity was measured for LcAOX, LrHP, SrAOX3925, SrAOX3926, SrEAOX expressed by the methods described above. After incubating 580 μl of a reagent consisting of the composition of Table 12 at 37° C. for 5 minutes, 20 μl of a substrate solution (1500 mM EAP) was added and mixed, and the amount of change at A555 (ΔAS) per 1 minute at 37° C. was measured using the spectrophotometer (U-3900, manufactured by Hitachi High-Tech Science Corporation). Subsequently, 20 μl of ion-exchanged water was added instead of the substrate solution and mixed, and the amount of change at A555 (ΔA0) per 1 minute at 37° C. was measured.
The oxidase activity was calculated based on the following formula: Oxidase activity (U/ml)=(ΔAS−ΔA0)×600.0×df/(39.2×0.5×x)=30.6×(ΔAS−ΔA0)×df/x • 39.2: Millimolar extinction coefficient (mM^−1cm^−1) of 4-AA-TOOS Condensation dye for 555 nm-wavelength light • df: Dilution rate of enzyme solution (Quantification of EAP by LrHP)

Data set [2] in a line: Quantification of EAP by LrHP by electrochemical methods (chronoamperometry). Conditions: +600 mV (Ag/AgCl); 0 μM to 1400 μM and 0 μM to 170 μM EAP; FIG. 6, FIG. 7. The method, then:
20 μl of 150 mM Bicine-NaOH buffer solution (pH 7.5), 15 μl of 1.5 M potassium chloride solution, and 5 μl of LrHP solution (0.14 U/ml) were applied and mixed on a SCREEN-PRINTED ELECTRODES (manufactured by DropSens, Product Number DRP-C110). A dedicated connector (DRP-CAC) was then used to connect to ALS electrochemical analyzer 814D. Chronoamperometric measurements were performed at +600 mV (Ag/AgCl). Subsequently, 2 μl of EAP solution at each concentration was added, and the current value at 100 seconds after the initiation of measurement was recorded. Similar experiments were carried out using 5 μl of ultrapure water (ion-exchanged water) instead of LrHP solution as a control experiment.

Data set [3] in a line: Evaluation of substrate specificity of crude enzyme solution (PMS/DCIP, 96-well plate). Conditions: 5 mM substrate, potassium phosphate buffer pH 8.0, PMS. The method, then:
An activity measurement using 2, 6-Dichlorophenolindophenol (DCIP) was performed in a 96-well plate. […] As the substrate, taurine (manufactured by Fujifilm Wako Pure Chemical Corporation), ethanolamine phosphate (EAP, manufactured by Fujifilm Wako Pure Chemical Corporation), ethanolamine (manufactured by Tokyo Chemical Industry, Co., Ltd.), and benzylamine (manufactured by Tokyo Chemical Industry Co., Ltd.) were used.

B1: SrAOX3926: amine oxidase derived from Syncephalastrum racemosum, GenBank ID ORZ03926.1, SEQ ID NO: 30 (protein, listed as Syncephalastrum racemosum)
chain: MTVSAVIHPLDPLSPEEIRHASAIIRRERSADKTIFIFNSISLREPPKDQVLAHFGWAAGPKPAQIDRQAFVVLIDRPSGLVHEIIVSLTTSSVVSWNRKQGVQPTLHVQEMLEAEEVMLKDERVIEECRKLGIEDMSLVFADTWGVGWHKTKGKRLMQALMYMRTSPDDNQYAHPLDFTPLYDVNEQKVIDVLVAKRRNSKFERPVIPRADHQFLPEHLGEGNLRKDIKPIEIIQPEGVSFQIRGHEIDWQKWNLHIGFNYREGLVISNVSYKDMDGTVRPVFYRVSLAEMVVPYANPYEPYNHKMAFDVGEYGLGNLTNSLELGCDCVGSIFYMDGVCSDLKGDAWVIPNAICIHEEDTGLLFKHTDFRNNKAHSARSRRLVISHIVTAANYDYGLYYYFYQDGTFQYEVKATGELNTHVLAEDENPAPYGTIVAPQIDAQHHQHLFSMRIDPMVDGPTNSVAQVDVVASDLPVGHPDNAVGNAFSPITTIYANTDEAQARANGETSRYWKIINEDKIHPYTREPVGFKLMCPNTPPMLPKPGSIAYERAVFASKTVWVTPYDAEQLFPGGFYCYQSDPADRLGLPEWTKGKKDVKNKDIVLWLTFGLTHIPRVEDFPIMPVETCGFMLKPCNFFLANPGIDIPASDKHSTKSAYAHALTNGANGTGNGSTNGSSCCNKNY
Consider B1, for which, in data set [1], the “oxidase activity of the crude enzymatic solution against EAP” value turned out to be 0.2 U/L.

B2: SrEAOX: ethanolamine oxidase derived from Syncephalastrum racemosum, GenBank ID BAU20376.1, SEQ ID NO: 35 (protein, listed as Syncephalastrum racemosum)
chain: MTLPTTIHPLDPLSPEEIRHVSEIIRKQRAADETTYIFNSIALREPPKEQILAHFGWTDGPKPVQIDRQAFAVLIDRPSGLVHEIIVSITTASIVSWETKEGVQPTLHVQEMLEAEQVMLKDERVIEECRKLGIEDMSMVFADTWGVGWHKTKGKRLMQALMYMRTSPDDNQYAHPLDFTPLYDVNEQKVIDVLVAKRRNSKFERPVIPRADRQFLPEHLGEENLRKDIKPIEITQPQGVSFQIRGHEIDWQKWNLHVGFNYREGLVINNVSYKDMDGTVRPMFYRVSLAEMVVPYANPYEPYNHKMAFDVGEYGLGNLTNSLELGCDCVGSIFYMDGVCSDIKGDAWVIPNAICIHEEDTGLLFKHTDFRNNKAHSARSRRLVISHIVTAANYDYGLYYYFYQDGTFQYEVKATGELNTHVLAEDEDPAPYGTIVAPQVDAQHHQHLFSMRIDPMVDGPTNSVAQVDVVASDLPVGHPDNAVGNAFSPVTTIYADTDEARARANGETSRYWKIINETRIHPYTKEPVGFKLMCPNTPPMLPKPGSIAYERAVFASNTVWVTPYDAEQLFPGGFYCYQSDPADRLGLPEWTREKKDVKNKDIVLWLTFGLTHIPRVEDFPIMPVETCGFMLKPCNFFLANPGIDIPASDRHSSKSAYAPAVANGEYGITNGTTNGSSCCSKGH
With B2, the “oxidase activity of the crude enzymatic solution against EAP” value in data set [1] turned out to be 16 U/L.

B3: LrHP: hypothetical protein derived from Lichtheimia ramosa, GenBank ID CDS02610.1, SEQ ID NO: 20 (protein, listed as Lichtheimia ramosa)
chain: MSSSPIKPYPLDPLTADEIRRAAALIRETRGQDTTYVFNSLTLKEPSKQQMMSYLGWTNSPSHPKPVTIDREVFAVLIDRPSGLVHEMTVNLDKNQVTRWNKVEGRQPTVNVFEMLEAEREILKDERVKEQCRQLGINDMSMVFADPWGVGYHEIKGKRLVQALMYARTSPDDNQYAHPLDFNPLYDVNAKKVIDIIVSKRRNSSFDRPVIPMANHHFLPEHLGQDRLRKDIKPIEITQPQGVSFSIRDGHQLHWQKWDMHLSFNYREGLVINNLSYRDMDGTVRPIIYRMSLSEMVVPYANPYKPYNHKMAFDVGEYGLGNLTNSLELGCDCVGKICYLDATLSDLNGDPWQIPNAICIHEEDTGLLFKHTDYRTGKAHSARSRRLVISHIVTAANYDYGLYYYFYQDGTIQYEVKATGELNTQVLAADEDAAPYGTIVAPQVDAQHHQHLFSMRIDPMVDGPNNSVAEVDVVASDLPVGHPHNSIGNSFYPVTKVFNTTDEAKTMASIERHRSWKIINENKIHPYAKQPVGFKMMAHPTPPLLPKPGSIVYERAMFASKTLWVTPYNEEQRYPGGFYCYQSEPSENLGLPQWTKETQNVRDTDIVCWLNFGITHIPRVEDFPIMPIETCGVMLKPVNFFLGNPGIDIPPSTRQSTKSAYATEATCCRKNNL
With B3, the “current value at 100 seconds after the initiation of measurement with increasing EAP” value in data set [2] is reported as “current value also increased”. For the same molecule, in data set [1], the “oxidase activity of the crude enzymatic solution against EAP” value is 5.8 U/L and the “oxidase activity against EAP after being purified” value (from here on “oxidase activity against EAP”) is on record as 0.31 U/ml. Besides, in data set [1] (final concentration of 50 mM EAP), the “oxidase activity of purified LrHP solution used in the quantification reagent” value is given as 0.14 U/ml (*purified LrHP solutions).

B4: LcAOX: amine oxidase derived from Lichtheimia corymbifera, GenBank ID CDH56199.1, SEQ ID NO: 15 (protein, listed as Lichtheimia corymbifera)
chain: MSSSSSATPKPHPLDPLSADEIRRAAAIIREKRGQDTSYVFNSLTLKEPAKQQMMLYLGWVNSSSQPKPVTIDREVFAVLIDRPSGLVHEMTVNLDKSAVTSWNKVEGRQPTINIFEMLEAEREILKDERVKDQCRQLGITDMSMVYADPWGVGYHEIKGKRLVQALLYARTSPDDNQYAHPLDFNPLYDLNAKKVLDIVVSKRRNSSFERPVIPMANHHFLPEHLGEDRLRKDIKPIEITQPQGVSFSIRDGHQLHWQKWDMHLSFNYREGLVINNLSYRDMDSTVRPIIYRMSLAEMVVPYANPYKPYNHKMAFDVGEYGLGNLTNSLELGCDCVGKIGYLDAVLSDLNGDPWHIPNAICIHEEDTGLLFKHSDYRTGKAHSARSRRLVISHIVTAANYDYGLYYYFYQDGTIQYEVKATGELNTQVLAEDEDAAPYGTIVAPQVDAQHHQHLFSMRIDPMLDGPNNSVAEVDVVASDLPVGHPHNSVGNSFYPVTKVFNTTDEAKTMASVERHRTWKIINESKIHPYAKQPVGFKMMAHPTPPLLPKPGSIVYERAMFASKTLWVTPHNDKQLYPGGFYCYQSEPSENLGLPQWTKETQNVRDTDIVCWLNFGITHIPRVEDFPIMPIETCGIMLKPANFFLCNPGIDIPPSTRQSTKSAYANDATCCRKNNL
For B4, in data set [1], the “oxidase activity of the crude enzymatic solution against EAP” value is 1.8 U/L and the “oxidase activity against EAP” value is listed as 0.11 U/ml.

B5: SrAOX3925: amine oxidase derived from Syncephalastrum racemosum, GenBank ID ORZ03925.1, SEQ ID NO: 25 (protein, listed as Syncephalastrum racemosum)
chain: MTIVSPSHPLDPLTPSEIRHVAEIVRATRSPDDKTPRDYIFSSICLKEPHKDKTLAYLQSVSEEAAALMPEREALVILIDRPSGLVHEILVSITDEKVKSAKTLKNVQPTQHVLEMIEAEKIITKDPSVIEECRKLGITDMKNVYADPWTVGYHAQFKSSKRLMQALMYMRTSPDDNQYAHPLDFVPIYDVNAQKVVEILRQETSEASKYDRPTVPLENHQFLPEHIGVENLRKDIKPIEITQPEGVSFTVRGREIEWQNWSMHVGFNYREGVIINNVSYKDKGNVRPLFYRVSVSEMVVPYAHPKEPFNHKMAFDVGEYGLGNLTNSLELGCDCLGSIYYMDGVCNNLDGEPWVIPNAICIHEEDTGLLFKHTDYRTDKAHSARSRRLVISQIVTAANYDYGLYFYFYQDGTFQYEVKATGELNTQVFAEDENPAPYGTAVAPQVVGQHHQHLFMMRIDPMLDGRLNSVAQVDVLPSEYPVGHVENPIGNAFSPITTIYSDTTEAQAHGNLESSRTWKIINESKLHPYTKEPVGYKLVSPNTPPMLPKPGSLVYERAKFATKTIWVTPYDPDQIYPAGFYCSQSPGDDSMGLPAWTKEPQSVRGRDVVVWLTFGLTHIPRVEDFPVMPVETCGWALKACNFFLGNPGIDIPAAQKGTSKRVNGACCA
For B5, in data set [1], the “oxidase activity of the crude enzymatic solution against EAP” value was 2.6 U/L and the “oxidase activity against EAP” value is 0.16 U/ml.

B6: LaTDH: large subunit of taurine dehydrogenase from Paracoccus denitrificans, amino acid sequence SEQ ID NO: 1, expressed in E. coli (protein)
chain: MQAIEKRAGALPYDPLYDPVTARGLGPRSDYAPTYWIGTAGAPPPDDGPVTGDMDADVVVIGSGYTGLSCALHLAKMHGIKAVVLEANGVAYGCSTRNGGQAQVSSGRLKRSQWIERWGLDVARRLHAEVCEGFDLFRGLIRDHAIDCDPQDGGHYYIAHKASAMPALEKETALLRDTFGYDARMISRDELHETVARDQEAHGAMWEADGVGIHAAKLAFGYLRAARELGARVHVDSPVQGWEYRNGVHHLRTPGGTVRARRVAVATAAYAPRSLHPRLRDRLMPIMSNSIVTRVLTPAELEAVGIRKLSPLTDTRTLRHYYRLLPDNRLQIGSRAAITGRDAANPAHLDALREGMARKFPALRGIALDYSWWGWVDVSHDMMPRITGLPDLPGAFYALGYGGNGVMYSAMAGRRMAQLVAGEAVPDLPIFNNELPHEGWRTPFRRLGQWGLYKFYHYRDERR
modifications: Paracoccus denitrificans
In the case of B6, in data set [3], the “degree of loss of blue color derived from DCIP (dehydrogenase activity), substrate benzylamine” value is on record as “did not react”; the “degree of loss of blue color derived from DCIP (dehydrogenase activity), substrate ethanolamine” value is on record as “did not react”; the “degree of loss of blue color derived from DCIP (dehydrogenase activity), substrate ethanolamine phosphate” value is given as “also reacted”; the “degree of loss of blue color derived from DCIP (dehydrogenase activity), substrate taurine” value is “reacted most”.
